B1: Compound 118 (peptide)
peptide: Ac-SEYCI[Trp(1-Me)]QDWGEHRC[Sar]EGAK([AEEA-γGlu-AEEA-Gly-γGlu-C18 diacid])-NH2
modifications: disulfide 4-14
SMILES: CC[C@H](C)[C@@H]1NC(=O)[C@@H](NC(=O)[C@H](Cc2ccc(O)cc2)NC(=O)[C@H](CCC(=O)O)NC(=O)[C@H](CO)NC(C)=O)CSSC[C@@H](C(=O)N(C)CC(=O)N[C@@H](CCC(=O)O)C(=O)NCC(=O)N[C@@H](C)C(=O)N[C@@H](CCCCNC(=O)COCCOCCNC(=O)CC[C@H](NC(=O)COCCOCCNC(=O)CNC(=O)CC[C@H](NC(=O)CCCCCCCCCCCCCCCCC(=O)O)C(=O)O)C(=O)O)C(N)=O)NC(=O)[C@H](CCCNC(=N)N)NC(=O)[C@H](Cc2c[nH]cn2)NC(=O)[C@H](CCC(=O)O)NC(=O)CNC(=O)[C@H](Cc2c[nH]c3ccccc23)NC(=O)[C@H](CC(=O)O)NC(=O)[C@H](CCC(N)=O)NC(=O)[C@H](Cc2cn(C)c3ccccc23)NC1=O
B2: Compound 120 (peptide)
peptide: Ac-SEFCI[Trp(1-Me)]QEWGEHRC[Sar]EGAK([AEEA-γGlu-AEEA-Gly-γGlu-C18 diacid])-NH2
modifications: disulfide 4-14
SMILES: CC[C@H](C)[C@@H]1NC(=O)[C@@H](NC(=O)[C@H](Cc2ccccc2)NC(=O)[C@H](CCC(=O)O)NC(=O)[C@H](CO)NC(C)=O)CSSC[C@@H](C(=O)N(C)CC(=O)N[C@@H](CCC(=O)O)C(=O)NCC(=O)N[C@@H](C)C(=O)N[C@@H](CCCCNC(=O)COCCOCCNC(=O)CC[C@H](NC(=O)COCCOCCNC(=O)CNC(=O)CC[C@H](NC(=O)CCCCCCCCCCCCCCCCC(=O)O)C(=O)O)C(=O)O)C(N)=O)NC(=O)[C@H](CCCNC(=N)N)NC(=O)[C@H](Cc2c[nH]cn2)NC(=O)[C@H](CCC(=O)O)NC(=O)CNC(=O)[C@H](Cc2c[nH]c3ccccc23)NC(=O)[C@H](CCC(=O)O)NC(=O)[C@H](CCC(N)=O)NC(=O)[C@H](Cc2cn(C)c3ccccc23)NC1=O
B3: Compound 122 (peptide)
peptide: Ac-SEYCI[Trp(1-Me)]QEWGEHRC[Sar]EGAK([AEEA-γGlu-AEEA-Gly-γGlu-C18 diacid])-NH2
modifications: disulfide 4-14
SMILES: CC[C@H](C)[C@@H]1NC(=O)[C@@H](NC(=O)[C@H](Cc2ccc(O)cc2)NC(=O)[C@H](CCC(=O)O)NC(=O)[C@H](CO)NC(C)=O)CSSC[C@@H](C(=O)N(C)CC(=O)N[C@@H](CCC(=O)O)C(=O)NCC(=O)N[C@@H](C)C(=O)N[C@@H](CCCCNC(=O)COCCOCCNC(=O)CC[C@H](NC(=O)COCCOCCNC(=O)CNC(=O)CC[C@H](NC(=O)CCCCCCCCCCCCCCCCC(=O)O)C(=O)O)C(=O)O)C(N)=O)NC(=O)[C@H](CCCNC(=N)N)NC(=O)[C@H](Cc2c[nH]cn2)NC(=O)[C@H](CCC(=O)O)NC(=O)CNC(=O)[C@H](Cc2c[nH]c3ccccc23)NC(=O)[C@H](CCC(=O)O)NC(=O)[C@H](CCC(N)=O)NC(=O)[C@H](Cc2cn(C)c3ccccc23)NC1=O
B4: Compound 119 (peptide)
peptide: Ac-SEFCI[Trp(1-Me)]QDWGEHRC[Sar]EGAK([AEEA-γGlu-AEEA-Gly-γGlu-C18 diacid])-NH2
modifications: disulfide 4-14
SMILES: CC[C@H](C)[C@@H]1NC(=O)[C@@H](NC(=O)[C@H](Cc2ccccc2)NC(=O)[C@H](CCC(=O)O)NC(=O)[C@H](CO)NC(C)=O)CSSC[C@@H](C(=O)N(C)CC(=O)N[C@@H](CCC(=O)O)C(=O)NCC(=O)N[C@@H](C)C(=O)N[C@@H](CCCCNC(=O)COCCOCCNC(=O)CC[C@H](NC(=O)COCCOCCNC(=O)CNC(=O)CC[C@H](NC(=O)CCCCCCCCCCCCCCCCC(=O)O)C(=O)O)C(=O)O)C(N)=O)NC(=O)[C@H](CCCNC(=N)N)NC(=O)[C@H](Cc2c[nH]cn2)NC(=O)[C@H](CCC(=O)O)NC(=O)CNC(=O)[C@H](Cc2c[nH]c3ccccc23)NC(=O)[C@H](CC(=O)O)NC(=O)[C@H](CCC(N)=O)NC(=O)[C@H](Cc2cn(C)c3ccccc23)NC1=O
notes: also called Compound No 119
B5: Compound 111 (peptide)
peptide: Ac-EGSAYCI[Trp(1-Me)]QDWGEHRC[Sar]EK[γGlu]K([AEEA-AEEA-γGlu-C18 diacid])-NH2
modifications: disulfide 6-16
SMILES: CC[C@H](C)[C@@H]1NC(=O)[C@@H](NC(=O)[C@H](Cc2ccc(O)cc2)NC(=O)[C@H](C)NC(=O)[C@H](CO)NC(=O)CNC(=O)[C@H](CCC(=O)O)NC(C)=O)CSSC[C@@H](C(=O)N(C)CC(=O)N[C@@H](CCC(=O)O)C(=O)N[C@@H](CCCCN)C(=O)N[C@@H](CCC(=O)N[C@@H](CCCCNC(=O)COCCOCCNC(=O)COCCOCCNC(=O)CC[C@H](NC(=O)CCCCCCCCCCCCCCCCC(=O)O)C(=O)O)C(N)=O)C(=O)O)NC(=O)[C@H](CCCNC(=N)N)NC(=O)[C@H](Cc2c[nH]cn2)NC(=O)[C@H](CCC(=O)O)NC(=O)CNC(=O)[C@H](Cc2c[nH]c3ccccc23)NC(=O)[C@H](CC(=O)O)NC(=O)[C@H](CCC(N)=O)NC(=O)[C@H](Cc2cn(C)c3ccccc23)NC1=O
B6: Compound 121 (peptide)
peptide: Ac-SEYCI[Trp(1-Me)]QEW[Sar]EHRC[Sar]EK[γGlu]AK([AEEA-γGlu-AEEA-Gly-γGlu-C18 diacid])-NH2
modifications: disulfide 4-14
SMILES: CC[C@H](C)[C@@H]1NC(=O)[C@@H](NC(=O)[C@H](Cc2ccc(O)cc2)NC(=O)[C@H](CCC(=O)O)NC(=O)[C@H](CO)NC(C)=O)CSSC[C@@H](C(=O)N(C)CC(=O)N[C@@H](CCC(=O)O)C(=O)N[C@@H](CCCCN)C(=O)N[C@@H](CCC(=O)N[C@@H](C)C(=O)N[C@@H](CCCCNC(=O)COCCOCCNC(=O)CC[C@H](NC(=O)COCCOCCNC(=O)CNC(=O)CC[C@H](NC(=O)CCCCCCCCCCCCCCCCC(=O)O)C(=O)O)C(=O)O)C(N)=O)C(=O)O)NC(=O)[C@H](CCCNC(=N)N)NC(=O)[C@H](Cc2c[nH]cn2)NC(=O)[C@H](CCC(=O)O)NC(=O)CN(C)C(=O)[C@H](Cc2c[nH]c3ccccc23)NC(=O)[C@H](CCC(=O)O)NC(=O)[C@H](CCC(N)=O)NC(=O)[C@H](Cc2cn(C)c3ccccc23)NC1=O
B7: Compound 54 (peptide)
peptide: Ac-EGSAYCI[Trp(1-Me)]QDWGEHRC[Sar]E-NH2
modifications: disulfide 6-16
SMILES: CC[C@H](C)[C@@H]1NC(=O)[C@@H](NC(=O)[C@H](Cc2ccc(O)cc2)NC(=O)[C@H](C)NC(=O)[C@H](CO)NC(=O)CNC(=O)[C@H](CCC(=O)O)NC(C)=O)CSSC[C@@H](C(=O)N(C)CC(=O)N[C@@H](CCC(=O)O)C(N)=O)NC(=O)[C@H](CCCNC(=N)N)NC(=O)[C@H](Cc2c[nH]cn2)NC(=O)[C@H](CCC(=O)O)NC(=O)CNC(=O)[C@H](Cc2c[nH]c3ccccc23)NC(=O)[C@H](CC(=O)O)NC(=O)[C@H](CCC(N)=O)NC(=O)[C@H](Cc2cn(C)c3ccccc23)NC1=O
B8: Compound 107 (peptide)
peptide: {C16 diacid}-EGSEYCI[Trp(1-Me)]QDWGEHRC[Sar]E-NH2
modifications: disulfide 6-16; also: places 15-carboxy-pentadecanoyl on side chain of Glu1, mods on N-terminus

This note sets out measurements from patent US11965039B2, “Compstatin analogues and their medical uses” (priority 2018, dated 2024).

Starred links: 1 amine or outer side, 2 acyl side, 3 side chain; linkers in the order of their positions; H or OH if unused. Positions of bridges follow the written chain, without caps; N, C: chain ends. Non-standard residues stand in square brackets, D forms with d. Groups on a side chain read outwards from the residue. *: point of attachment. Trp(1-Me) = Cn1cc(C[C@H](N)C(=O)O)c2ccccc21; C18 diacid = O=C(O)CCCCCCCCCCCCCCCCC(=O)*; C16 diacid = O=C(O)CCCCCCCCCCCCCCC(=O)*; γGlu = O=C(O)[C@H](CCC(=O)[*:2])N[*:1]; AEEA = NCCOCCOCC(=O)O; Sar = CNCC(=O)O

T1 sequence (P01024 23-1663 limits assumed): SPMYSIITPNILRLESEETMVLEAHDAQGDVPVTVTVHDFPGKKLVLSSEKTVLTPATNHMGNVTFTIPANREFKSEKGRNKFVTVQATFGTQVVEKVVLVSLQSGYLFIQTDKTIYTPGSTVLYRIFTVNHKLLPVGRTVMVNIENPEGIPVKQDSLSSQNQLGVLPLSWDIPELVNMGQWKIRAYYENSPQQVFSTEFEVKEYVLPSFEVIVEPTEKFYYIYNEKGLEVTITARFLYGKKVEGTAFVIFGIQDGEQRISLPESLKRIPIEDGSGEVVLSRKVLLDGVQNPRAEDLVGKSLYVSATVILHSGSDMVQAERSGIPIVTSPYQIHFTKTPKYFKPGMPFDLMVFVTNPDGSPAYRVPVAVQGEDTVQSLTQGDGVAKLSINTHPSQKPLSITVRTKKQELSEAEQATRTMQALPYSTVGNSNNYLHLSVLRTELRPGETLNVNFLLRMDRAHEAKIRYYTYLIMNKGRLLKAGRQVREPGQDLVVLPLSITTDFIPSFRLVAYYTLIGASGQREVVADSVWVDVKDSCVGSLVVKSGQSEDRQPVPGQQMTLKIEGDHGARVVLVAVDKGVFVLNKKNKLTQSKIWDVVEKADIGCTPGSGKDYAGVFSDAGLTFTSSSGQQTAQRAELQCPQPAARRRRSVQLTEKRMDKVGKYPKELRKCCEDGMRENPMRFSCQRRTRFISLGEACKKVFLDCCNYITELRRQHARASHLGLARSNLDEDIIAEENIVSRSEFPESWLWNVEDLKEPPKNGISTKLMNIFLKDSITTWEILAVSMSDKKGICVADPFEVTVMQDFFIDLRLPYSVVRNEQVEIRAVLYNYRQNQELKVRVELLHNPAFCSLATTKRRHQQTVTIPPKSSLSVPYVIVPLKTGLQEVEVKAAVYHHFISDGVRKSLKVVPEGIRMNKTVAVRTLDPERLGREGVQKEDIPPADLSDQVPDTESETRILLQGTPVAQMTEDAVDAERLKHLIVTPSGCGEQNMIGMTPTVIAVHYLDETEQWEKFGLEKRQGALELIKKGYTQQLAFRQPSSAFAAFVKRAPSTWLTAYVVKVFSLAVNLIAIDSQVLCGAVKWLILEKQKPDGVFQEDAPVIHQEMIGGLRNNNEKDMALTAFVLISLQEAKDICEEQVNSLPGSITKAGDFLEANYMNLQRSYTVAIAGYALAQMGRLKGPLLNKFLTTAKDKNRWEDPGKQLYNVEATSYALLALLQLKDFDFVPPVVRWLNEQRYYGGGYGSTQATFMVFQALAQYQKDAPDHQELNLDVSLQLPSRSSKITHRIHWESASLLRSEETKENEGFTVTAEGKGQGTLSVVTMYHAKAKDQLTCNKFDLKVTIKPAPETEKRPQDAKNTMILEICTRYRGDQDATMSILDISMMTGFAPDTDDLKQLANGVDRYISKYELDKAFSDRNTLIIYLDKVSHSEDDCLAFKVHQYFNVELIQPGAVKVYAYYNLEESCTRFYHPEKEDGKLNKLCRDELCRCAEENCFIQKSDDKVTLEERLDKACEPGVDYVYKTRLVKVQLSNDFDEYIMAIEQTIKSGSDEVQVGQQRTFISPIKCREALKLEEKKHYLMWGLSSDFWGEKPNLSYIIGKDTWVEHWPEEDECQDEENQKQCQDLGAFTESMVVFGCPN

One assay addresses T1, Human C3 (Complement tech cat #A113c) (human, UniProt P01024 23-1663). Kind of assay: cell-based or functional assay.
Regarding B1, the “inhibition of hemolysis IC50” value was less than 100 nM.

On to B2, for which the “inhibition of hemolysis IC50” value was less than 250 nM.

For the molecule B3, the “inhibition of hemolysis IC50” value was less than 500 nM.

Take B4: the “inhibition of hemolysis IC50” value was less than 100 nM.

With B5, the “inhibition of hemolysis IC50” value is less than 100 nM.

Regarding Ac-SEFCI[Trp(1-Me)]QDWGEHRC[Sar]EGE-{AEEA-AEEA-K(γGlu-Gly-γGlu-17-carboxy-heptadecanoyl)-NH2} (disulfide 4-14) [Compound 123], the “inhibition of hemolysis IC50” value was less than 100 nM.

As for Ac-SEFCI[Trp(1-Me)]QEWGEHRC[Sar]EGE-{AEEA-AEEA-K(γGlu-Gly-γGlu-17-carboxy-heptadecanoyl)-NH2} (disulfide 4-14) [Compound 124], the “inhibition of hemolysis IC50” value was less than 100 nM.

For Ac-SEYCI[Trp(1-Me)]QDWGEHRC[Sar]EGE-{AEEA-AEEA-K(γGlu-Gly-γGlu-17-carboxy-heptadecanoyl)-NH2} (disulfide 4-14) [Compound 117], the “inhibition of hemolysis IC50” value is less than 250 nM.

With Ac-SEYCI[Trp(1-Me)]QEWGEHRC[Sar]EGE-{AEEA-AEEA-K(γGlu-Gly-γGlu-17-carboxy-heptadecanoyl)-NH2} (disulfide 4-14) [Compound 125], the “inhibition of hemolysis IC50” value is less than 500 nM.

As for B6, the “inhibition of hemolysis IC50” value was less than 250 nM.

On to B7, for which the “inhibition of hemolysis IC50” value was less than 100 nM.

As to B8, the “inhibition of hemolysis IC50” value is less than 100 nM.

The target in a further assay is T1, Human C3 (Complement tech cat #A113c). Briefly: SPR (Biacore T200), human C3 immobilised, peptide injected, 1:1 fit. As to the method: Surface plasmon resonance (SPR) was used to characterize peptides with respect to their binding affinity (Kd) for C3. Human C3 (Complement tech cat #A113c) was immobilised on individual flow cells of CM5 sensor chips (GE Healthcare) using standard amine coupling to a density of approximately 3000 resonance units (RU) in a buffer consisting of 10 mM phosphate pH 7.4, 150 mM NaCl, 0.05% Tween20.
For interaction experiments a multi-cycle experiment approach was used and performed using a BiacoreT200™ instrument (GE Healthcare) at 25° C. Peptides were injected in increasing concentration series (6-8 different concentrations) for 60-120 sat a flow rate of 30 µL/min in a buffer consisting of 10 mM Tris buffer at pH 7.4, with 150 mM NaCl and 0.05% Tween20. This was followed by a dissociation period for up to 10 min. The C3 surface was regenerated between runs by a 45 s injection of 3 M MgCl_2.
For the molecule B1, the Kd came to 11 nM.

B2 yielded a dissociation constant (Kd) of 28 nM.

Consider B3, for which the equilibrium dissociation constant (Kd) is 63 nM.

Take B4: the Kd came to 9.8 nM.

Consider B5, for which the Kd is 8.2 nM.

In turn, Ac-SEFCI[Trp(1-Me)]QDWGEHRC[Sar]EGE-{AEEA-AEEA-K(γGlu-Gly-γGlu-17-carboxy-heptadecanoyl)-NH2} (disulfide 4-14) [Compound 123] yielded a Kd of 11 nM.

For the molecule Ac-SEFCI[Trp(1-Me)]QEWGEHRC[Sar]EGE-{AEEA-AEEA-K(γGlu-Gly-γGlu-17-carboxy-heptadecanoyl)-NH2} (disulfide 4-14) [Compound 124], the Kd was found to be 31 nM.

For the molecule Ac-SEYCI[Trp(1-Me)]QDWGEHRC[Sar]EGE-{AEEA-AEEA-K(γGlu-Gly-γGlu-17-carboxy-heptadecanoyl)-NH2} (disulfide 4-14) [Compound 117], the Kd worked out at 24 nM.

For the molecule Ac-SEYCI[Trp(1-Me)]QEWGEHRC[Sar]EGE-{AEEA-AEEA-K(γGlu-Gly-γGlu-17-carboxy-heptadecanoyl)-NH2} (disulfide 4-14) [Compound 125], the Kd stood at 71 nM.

B6: the Kd is 30 nM.

Take B7: binding was characterised by a dissociation constant (Kd) of 3 nM.

The molecule B8 had a Kd of 6.1 nM.
